Data taken from the supplement of paper PMC10567573.
± gives the standard deviation.

Assay: protein stability index of a GFP-peptide fusion (GPS, HEK-293T) (PSI 1-6); higher = more stable
Details: c terminus: a fixed tail appended
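Further: 24-mer peptide tiles fused after GFP, lentivirally expressed, FACS-sorted into six equal bins by GFP/DsRed ratio, decoded by Illumina sequencing, PSI is the read-weighted mean bin number.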

Sequence | protein stability index (treatment: DMSO) | protein stability index (treatment: MLN4924 1 uM, 8 h)
PQAHQESTRGAARPAQAIGTQPRA [SPACA9] | 5.08 ± 0.23 | 5.35 ± 0.18
PQGSRSPYIPPHAALCLEVTLKTA [FKBP8] | 2.26 ± 0.33 | 2.1 ± 0.22
PRAKSKVWKYFGFDTNAEGCILQW [ZBED1] | 2.3 ± 0.59 | 2.38 ± 0.081
PRGRAHLLPNPYQQDFLGLPEELR [C22orf15] | 3.92 ± 0.24 | 4.31 ± 0.11
PRKRHREDSDVEMVEDDSRKEMTA [MLH1] | 5.43 ± 0.25 | 5.49 ± 0.18
PRTSEAQARKALFEKWEQETAAGK [SMTNL2] | 5.1 ± 0.31 | 5.02 ± 0.24
PSDAPHAHHPLHPHLMQEHMGTNV [HNF4A] | 4.45 ± 0.24 | 4.5 ± 0.1
PSFLSQTGHGVSRGPSPVVLGSQD [FCHO1] | 4.33 ± 0.3 | 4.3 ± 0.32
PSGHSDAQTLAMMLQEQLDAINEE [PPFIA4] | 4.94 ± 0.44 | 4.46 ± 0.21
PSLEELGFDTDGLSSAVWPGGETE [CRY1] | 5.33 ± 0.28 | 5.29 ± 0.16
PVCRKTSRYRSLRPNRQLGSMVEI [TRIM39] | 2.61 ± 0.15 | 2.83 ± 0.089
PVDPDSQADTVHSNPELDVLLLGS [DNAAF3] | 4.95 ± 0.11 | 5 ± 0.19
PVHLIDKLPLPVTIKSHLKSFSMA [RAB40C] | 2.3 ± 0.081 | 2.34 ± 0.039
PVYLLLELEDKDGLQSAQPTEGQG [MYBL2] | 3.88 ± 0.23 | 3.79 ± 0.058
PWERAMGVDPQQKMELGIDLLAYG [MYOZ1] | 2.97 ± 0.28 | 2.94 ± 0.13
PWVKELQDSKEMKQLLDSKIGFEI [ZNF449] | 2.9 ± 0.49 | 3.01 ± 0.65
PYFLFQHWATGYSKSSHPLIRSLF [SOAT1] | 2.46 ± 0.51 | 2.34 ± 0.74
QAAPGALPVSSPEPPPALPPAADA [TRIM55] | 5.46 ± 0.15 | 5.37 ± 0.28
QALKFLPVPSAPVIDLAESLVADN [FSD1] | 3.48 ± 0.42 | 3.77 ± 0.28
QALSNVPPLRNYFLEEDNYKNIKR [USP39] | 3.77 ± 0.28 | 4.18 ± 0.48
QEKDQEMERLRELQRASILDMRRD [FBF1] | 4.86 ± 0.22 | 4.79 ± 0.24
QEMVQRPQPHRNRAGLDLPTIDTG [TRAF3IP2] | 4.5 ± 0.26 | 4.59 ± 0.19

Sequence | protein stability index (treatment: DMSO) | protein stability index (treatment: MLN4924 1 uM, 8 h)
QEPPTTDSQEAQSPGHSSAGQEGE [TOR1AIP2] | 5.67 ± 0.25 | 5.56 ± 0.26
QFHDLMELFRIGGKSPDTNYLFMG [PPP2CA] | 2.53 ± 0.58 | 2.24 ± 0.39
QFQDLTGIESMDQCRHTLEQHNWN [FAF2] | 3.1 ± 0.38 | 3.37 ± 0.13
QFSVVSVVAYLALAALSATISFRI [RTN1] | 2.99 ± 0.57 | 3.2 ± 0.55
QGEGPEAGDAEVCPTPARLATTEK [NOP53] | 5.46 ± 0.27 | 5.44 ± 0.19
QGRFCTIFRSYSRGAQGVILVYDI [RAB40A] | 3.15 ± 0.35 | 2.99 ± 0.43
QIKDFKEKIQQDADSVITVGRGEV [ACBD3] | 5.06 ± 0.18 | 5.06 ± 0.32
QKLNVFKNFIGLLQNQNFPYPVLF [NLN] | 2.89 ± 1.1 | 2.76 ± 0.46
QKVASNHSPFSSESRALSTSSNLG [TBX5] | 4.19 ± 0.17 | 4.29 ± 0.085
QLLYSPIENIQRVAAGVLCELAQD [CTNNB1] | 2.29 ± 0.24 | 2.27 ± 0.27
QMTPTNLAVCLAPSLFHLNTLKRE [DLC1] | 2.79 ± 0.044 | 2.53 ± 0.036
QPRIHLVRAAQLCSQHWGGMASFR [TBX6] | 2.38 ± 0.56 | 2.24 ± 0.11
QQDLERSLQDASRGDPAHAGLAEL [PBXIP1] | 5.32 ± 0.18 | 5.38 ± 0.16
QQLNDYEQLLDVKLALDMEISAYR [LMNB1] | 2.95 ± 0.32 | 2.9 ± 0.31
QQLYYTEADYEDDSKIAFLMQLQD [IQUB] | 3.45 ± 0.54 | 3.48 ± 0.51
QRLDYEREIQPTAILSLDQIKAIR [SPRY1] | 3.7 ± 0.061 | 3.87 ± 0.24
QSAFLHLPLPEQIHKASATIIEPA [INTS4] | 3.45 ± 0.31 | 3.82 ± 0.1
QSKGHGRAVDWWALGILIFEMLSG [PRKX] | 2.58 ± 0.58 | 2.56 ± 0.36
QSMSEEEREKVTPLMVKGFRDAAE [SEPHS2] | 5.01 ± 0.27 | 4.88 ± 0.24
QSSGKVMYFSSLFPYVVLACFLVR [SLC6A17] | 2.6 ± 0.76 | 2.41 ± 0.24
QSVSYSKLLSVIVWMLMLLLAVPN [P2RY14] | 3.24 ± 0.27 | 3.17 ± 0.49
QVDVGDVNDNAPEVLLASLANPVL [PCDHGC5] | 4.07 ± 0.28 | 4.21 ± 0.31

Sequence | protein stability index (treatment: DMSO) | protein stability index (treatment: MLN4924 1 uM, 8 h)
QYVTFLRSFSDKQKISLLHSCTCV [ALG2] | 3.1 ± 0.51 | 2.69 ± 0.48
RAPACSPEAAAAQLRATAGSLILP [FCHO1] | 3.12 ± 0.38 | 3.15 ± 0.34
RARDSPEPGAGLGIGDMAFEGDMG [PSD2] | 4.73 ± 0.13 | 4.91 ± 0.15
RARRTEISKNSEKKMESEEDSNWE [GOLPH3L] | 5.43 ± 0.49 | 5.35 ± 0.44
RCIGVTKPIFHSTKITSKHVKMML [PTGFR] | 2.13 ± 0.27 | 2.15 ± 0.28
RDFDNNTPLHIAAQNNCPAIMNAL [FEM1A] | 3.36 ± 0.3 | 3.46 ± 0.41
RDKNWQTPLHVAAANKAVKCAEVI [ANKRD44] | 3.69 ± 0.38 | 3.7 ± 0.19
RDLTQEQTEKLLQFQDLTGIESMD [FAF2] | 5.04 ± 0.11 | 5.05 ± 0.16
RDNAELEKLIQERSQQQEPLLCPS [KRT34] | 4.94 ± 0.13 | 4.87 ± 0.27
RDPQAVKERALSAPWLSLFPPEGN [ZNF263] | 3.06 ± 0.27 | 3.14 ± 0.33
REDQLDTVLAVLEDSSRDIREALH [INTS4] | 4.21 ± 0.36 | 4.38 ± 0.34
RELREVRRVPPRFSIPPTNHEIMP [PTPRD] | 3.74 ± 0.093 | 3.88 ± 0.14
RESFTSRQKTSGPSVIQEIHQESG [C10orf62] | 4.94 ± 0.099 | 5.02 ± 0.24
RFCCCVAVIYLGYCFCGWIVLGPY [MCOLN1] | 3.41 ± 0.26 | 3.28 ± 0.48
RGENVVLLGEIDLEKESDTPLQQV [LSM1] | 4.96 ± 0.27 | 4.79 ± 0.18
RGKNKMAAQNCRKRKLDTILNLER [NFE2L1] | 3.57 ± 0.33 | 3.63 ± 0.24
RGLPLLKTDFGSCLLQPPSCPNGM [DLC1] | 2.69 ± 0.22 | 2.67 ± 0.41
RHCDDDGRTENGALAPKQELPSAL [ZNF24] | 5.25 ± 0.22 | 5.15 ± 0.21
RHLAHSMLQRAIAYQHSGHLESKD [C10orf62] | 3.91 ± 0.24 | 3.92 ± 0.21
RIGEATKPDGTVEQIGHILVSWLP [NET1] | 2.68 ± 0.29 | 2.56 ± 0.24
RKLNSRLFVIRGQPADVFPRLFKE [CRY1] | 2.27 ± 0.38 | 2.09 ± 0.39
